From article PMC8563363 come the findings set out here.

Holding throughout (assay): EMSA
Data set [1] deals with T1, SMC3 head (Halo-SMC3HD-SCC1(Nt)) (Homo sapiens, UniProt Q9UQE7 1-251+=GGGGG+956-1216+=[…]+O60216:2-75, internal_change).
T1 sequence: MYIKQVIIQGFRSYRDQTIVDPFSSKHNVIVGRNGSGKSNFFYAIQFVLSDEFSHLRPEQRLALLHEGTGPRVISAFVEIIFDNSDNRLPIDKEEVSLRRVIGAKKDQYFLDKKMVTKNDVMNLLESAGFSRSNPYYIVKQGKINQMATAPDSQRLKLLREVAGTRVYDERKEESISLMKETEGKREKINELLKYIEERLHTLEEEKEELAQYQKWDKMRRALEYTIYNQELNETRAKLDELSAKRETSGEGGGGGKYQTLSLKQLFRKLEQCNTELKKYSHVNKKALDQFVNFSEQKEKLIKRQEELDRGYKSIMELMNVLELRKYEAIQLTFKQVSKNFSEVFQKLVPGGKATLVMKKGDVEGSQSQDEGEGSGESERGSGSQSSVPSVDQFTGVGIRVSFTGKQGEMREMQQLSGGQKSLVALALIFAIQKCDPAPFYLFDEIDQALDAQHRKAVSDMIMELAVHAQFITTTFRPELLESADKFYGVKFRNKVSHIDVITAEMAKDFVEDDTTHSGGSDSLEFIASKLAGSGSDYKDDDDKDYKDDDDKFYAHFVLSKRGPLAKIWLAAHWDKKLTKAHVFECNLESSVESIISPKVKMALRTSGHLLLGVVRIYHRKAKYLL

The target in the next data set is T2, SMC1 head 4E (Homo sapiens, UniProt Q14683;O60216 1-200+=GGGGG+1030-1233;531-631, K52E;R57E;K59E;R62E;internal_change).
T2 sequence 1: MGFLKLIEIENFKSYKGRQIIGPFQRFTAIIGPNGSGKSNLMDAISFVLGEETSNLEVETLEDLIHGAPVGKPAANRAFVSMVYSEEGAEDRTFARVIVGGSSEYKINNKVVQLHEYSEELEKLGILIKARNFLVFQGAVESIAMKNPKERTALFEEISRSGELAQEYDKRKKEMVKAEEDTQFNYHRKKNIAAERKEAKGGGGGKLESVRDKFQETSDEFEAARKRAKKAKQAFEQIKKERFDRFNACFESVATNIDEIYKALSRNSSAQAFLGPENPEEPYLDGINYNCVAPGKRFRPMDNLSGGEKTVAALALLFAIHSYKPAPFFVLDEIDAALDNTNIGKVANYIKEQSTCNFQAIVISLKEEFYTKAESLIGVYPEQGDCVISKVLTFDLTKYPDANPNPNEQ
T2 sequence 2: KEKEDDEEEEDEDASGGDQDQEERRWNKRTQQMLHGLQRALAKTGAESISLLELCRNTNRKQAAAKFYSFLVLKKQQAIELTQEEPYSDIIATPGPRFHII

For the next data set, the target named is T3, deltaN-STAG1/SCC1(int) (Homo sapiens, UniProt Q8WVM7;O60216 71-1258;281-420).
T3 sequence 1: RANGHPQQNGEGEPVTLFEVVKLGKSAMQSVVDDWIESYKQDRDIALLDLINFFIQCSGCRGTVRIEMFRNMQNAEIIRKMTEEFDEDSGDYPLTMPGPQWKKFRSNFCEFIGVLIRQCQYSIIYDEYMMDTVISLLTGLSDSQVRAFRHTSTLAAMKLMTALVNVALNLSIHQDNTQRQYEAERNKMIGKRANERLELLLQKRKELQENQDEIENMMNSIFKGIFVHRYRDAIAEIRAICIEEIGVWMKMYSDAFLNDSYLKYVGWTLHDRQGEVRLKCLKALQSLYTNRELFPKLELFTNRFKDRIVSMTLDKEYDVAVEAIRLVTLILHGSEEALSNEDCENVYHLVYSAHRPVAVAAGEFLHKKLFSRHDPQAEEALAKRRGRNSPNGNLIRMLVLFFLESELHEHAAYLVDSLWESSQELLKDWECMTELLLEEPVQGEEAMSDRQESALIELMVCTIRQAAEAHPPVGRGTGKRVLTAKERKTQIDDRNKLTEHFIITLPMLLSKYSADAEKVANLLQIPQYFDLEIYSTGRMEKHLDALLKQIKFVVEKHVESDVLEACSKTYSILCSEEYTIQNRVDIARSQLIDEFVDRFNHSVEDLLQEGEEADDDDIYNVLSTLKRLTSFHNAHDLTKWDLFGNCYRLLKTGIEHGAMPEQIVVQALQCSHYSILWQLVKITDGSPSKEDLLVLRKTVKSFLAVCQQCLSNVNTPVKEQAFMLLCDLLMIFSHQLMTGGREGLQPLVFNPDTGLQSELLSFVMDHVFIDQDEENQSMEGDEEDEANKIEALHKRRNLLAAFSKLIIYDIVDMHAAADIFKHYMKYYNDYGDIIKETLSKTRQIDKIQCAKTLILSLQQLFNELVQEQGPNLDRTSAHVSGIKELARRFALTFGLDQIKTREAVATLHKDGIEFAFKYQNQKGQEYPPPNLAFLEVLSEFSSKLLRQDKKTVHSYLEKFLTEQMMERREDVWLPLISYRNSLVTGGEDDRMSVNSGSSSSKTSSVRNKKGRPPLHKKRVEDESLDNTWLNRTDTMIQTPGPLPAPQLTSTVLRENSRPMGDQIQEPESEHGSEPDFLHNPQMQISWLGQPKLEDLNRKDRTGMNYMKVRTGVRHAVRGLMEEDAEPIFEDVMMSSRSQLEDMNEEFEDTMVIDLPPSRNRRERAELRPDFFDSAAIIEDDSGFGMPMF
T3 sequence 2: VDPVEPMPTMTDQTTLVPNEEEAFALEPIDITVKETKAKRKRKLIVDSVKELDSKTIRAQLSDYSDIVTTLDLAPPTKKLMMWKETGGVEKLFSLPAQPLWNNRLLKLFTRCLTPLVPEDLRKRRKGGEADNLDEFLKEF

Another data set addresses deltaN-NIPBL2A (Homo sapiens, UniProt Q6KC79 1-21+1041-2804, R1867A;K1870A;internal_change).
Another data set concerns the target hinge (SMC1-SMC3) (Homo sapiens, UniProt Q9UQE7;Q14683 484-696;461-685).

Chain of hinge (SMC1-SMC3) (Q9UQE7 484-696, chain 1 of 2): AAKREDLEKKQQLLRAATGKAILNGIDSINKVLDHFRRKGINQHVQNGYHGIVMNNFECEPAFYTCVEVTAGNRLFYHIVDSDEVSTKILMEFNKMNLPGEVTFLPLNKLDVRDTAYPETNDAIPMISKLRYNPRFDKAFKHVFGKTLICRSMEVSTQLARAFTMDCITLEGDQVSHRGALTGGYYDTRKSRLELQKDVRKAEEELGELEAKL
Chain of hinge (SMC1-SMC3) (Q14683 461-685, chain 2 of 2): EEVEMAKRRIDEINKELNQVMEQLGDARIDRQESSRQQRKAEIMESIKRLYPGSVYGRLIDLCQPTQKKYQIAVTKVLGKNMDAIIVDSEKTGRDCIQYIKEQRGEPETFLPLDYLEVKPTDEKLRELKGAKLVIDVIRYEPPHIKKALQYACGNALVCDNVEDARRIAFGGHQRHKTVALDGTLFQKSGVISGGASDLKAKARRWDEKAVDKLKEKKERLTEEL

B1: 40 bp dsDNA EMSA probe (dsDNA)
DNA 1: GCGGGTAATCCAGAGCCAGACGAGCACTACGAACAACTAA
DNA 2: TTAGTTGTTCGTAGTGCTCGTCTGGCTCTGGATTACCCGC
Take B1: the binding result in data set [1] is recorded as “binds”; in the data set with SMC1 head 4E, “no binding”; with deltaN-STAG1/SCC1(int), “binds”; with deltaN-NIPBL2A it was “no binding”; with hinge (SMC1-SMC3), “binds”.
